The values that follow come from patent publication US20240343811A1 (SHANDONG SIMCERE BIOPHARMACUTICAL, published 2024).

Assay [1] deals with T1, cynomolgus monkey CD16, full length, on FlpinCHO cells (cynomolgus monkey, UniProt Q8SPW2 17-254).
T1 construct: also called FlpinCHO-cyno CD16; Flipin CHO-cyno CD16
Description: FACS on FlpinCHO cells. On the procedure:
(§1) The required cells were scale-up cultured in a T-75 cell culture flask to the logarithmic growth phase. The medium was aspirated, and the cells were washed twice with a PBS buffer and then digested with trypsin. After the digestion was terminated, the cells were washed twice with the PBS buffer. The cells were counted, and then the cell pellet was resuspended with a [PBS+2% (w/w) BSA] blocking solution to 2×10⁶ cells/ml, and added to a 96-well FACS reaction plate at 50 μl/well. […] 50 μl/well of the antibody to be detected was added at different concentrations, and incubated on ice for 1 hour. […] The mixture was centrifuged and washed 5 times with PBS, and FACS (FACS Canto II, purchased from BD Company) was used for detection and result analysis. Data analysis was performed by software (CellQuest) to obtain the mean fluorescence intensity (MFI) of the cells. Then, software (GraphPad Prism8) was used for analysis, data fitting and EC50 value calculation.
(§2) Flipin CHO-cyno CD16 cells were subjected to FACS detection and data analysis according to the method of Example 3.1.

Assay [2] deals with T2, human CD16a (158F), full length, on FlpinCHO cells (human, UniProt P08637 17-254). Description: FACS, biotinylated antibody, +10 mg/mL human immunoglobulin.
Assay [3] has as its target T3, human CD16a (158V), full length, on cells (human, UniProt P08637 17-254).
T3 construct: also used as target for the bought Jurkat-NFAT reporter line stably expressing human CD16a (158V); also called FlpinCHO-human CD16a (158V); FlpinCHO-CD16a (158V)
Described as above.

In the next assay the target is T4, Human CD16a (158F)-his (human).
T4 construct: entry holds ECD, AVI tag, linker and His tag
Description: SPR (Biacore), antibody captured on Protein A. In outline:
(§3)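 Protein A–captured antibody was probed with CD16-his ECD in HBS-EP+ at 25 °C: five 2-fold dilutions from 200 nM, 240 s at 30 μL/min, dissociation up to 600 s. Glycine pH 1.5 regenerated the chip. Apparent KD came from a double-referenced 1:1 Langmuir fit.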
(In general: In SPR one partner is held on a chip, and binding of the other changes the refractive index at the surface.)

In the next assay the target is T5, Human CD16a (158V)-his (human).
T5 construct: entry holds ECD, AVI tag, linker and His tag
As to the kind of experiment: SPR (Biacore), antibody captured on Protein A. In outline: as §3

Assay [4] deals with T2, human CD16a (158F), full length, on …. Description: FACS on FlpinCHO cells. In outline:
(§4)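 Trypsinised cells in PBS + 2% BSA were incubated on ice for 1 hour with antibody at a range of concentrations. After washes, mean fluorescence intensity was read by flow cytometry. EC50 values were derived by curve fitting of MFI.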

Assay [5] deals with T3, human CD16a (158V), full length, on …. As to the kind of experiment: FACS on FlpinCHO cells. Put shortly:
as §4

Assay [6] deals with T6, human CD16b (NA1), full length, on FlpinCHO cells (human, UniProt O75015 17-200).
T6 construct: also called FlpinCHO-human CD16b (NA1)
T6 chain: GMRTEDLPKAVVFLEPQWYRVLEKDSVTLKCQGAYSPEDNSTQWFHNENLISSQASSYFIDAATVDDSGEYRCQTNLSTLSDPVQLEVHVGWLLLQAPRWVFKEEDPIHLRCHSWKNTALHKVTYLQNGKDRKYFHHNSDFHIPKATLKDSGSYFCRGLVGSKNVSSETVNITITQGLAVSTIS
Description: FACS on FlpinCHO cells. In outline: (§5)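 Trypsin-detached FlpinCHO cells expressing full-length CD16b were blocked in PBS+2% BSA and incubated on ice for 1 hour with antibody at varying concentrations. Binding read by flow cytometry as MFI; EC50 from curve fitting.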

Assay [7] has as its target T7, human CD16b (NA2), full length, on FlpinCHO cells (human, UniProt O75015 17-200).
T7 construct: also called FlpinCHO-human CD16b (NA2)
T7 chain: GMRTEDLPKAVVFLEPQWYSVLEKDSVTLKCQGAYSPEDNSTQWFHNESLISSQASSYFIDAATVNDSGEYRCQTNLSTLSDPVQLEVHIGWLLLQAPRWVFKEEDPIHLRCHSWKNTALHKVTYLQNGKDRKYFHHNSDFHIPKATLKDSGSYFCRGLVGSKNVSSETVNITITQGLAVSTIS
Description: FACS on FlpinCHO cells. In outline:
as §5

Assay [8] addresses T2, human CD16a (158F), full length, on …. Description: FACS, biotinylated antibody.
Assay [9] has as its target T3, human CD16a (158V), full length, on …. As to the kind of experiment: FACS, biotinylated antibody. Background: A flow cytometer gives signals particle by particle.
For assay [10] the target is unchanged. As to the kind of experiment: cell-based or functional assay.
Assay [11] concerns the target T8, CD16 on primary human NK cells (human, UniProt P08637 17-254).
T8 construct: whole, on cells; also called resting NK cells
Description: FACS on human NK cells. Put shortly: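 Freshly prepared human NK cells were resuspended at 2×10⁶ cells/ml in PBS+2% (w/w) BSA and incubated 1 h on ice with antibody at varying concentrations. After five PBS washes, flow cytometry gave mean fluorescence intensity, and EC50 was fitted from the MFI curve.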

Assay [12] deals with T2, human CD16a (158F), full length, on …. As to the kind of experiment: FACS on FlpinCHO cells. The source holds these as a separate data set.
For assay [13], the target named is T3, human CD16a (158V), full length, on …. As to the kind of experiment: FACS on FlpinCHO cells. This is another data set of the same source.
The target in assay [14] is T6, human CD16b (NA1), full length, on …. Description: FACS on FlpinCHO cells. In outline: as §5
Assay [15] concerns the target T7, human CD16b (NA2), full length, on …. As to the kind of experiment: FACS on FlpinCHO cells. Put shortly: as §5
The target of assay [16] is T1, cynomolgus monkey CD16, full length, on …. As to the kind of experiment: FACS on FlpinCHO cells. On the procedure:
as §1, §2
The source holds these as a separate data set.

Assay [17] deals with T3, human CD16a (158V), full length, on …. As to the kind of experiment: cell-based or functional assay. This is another data set of the same source.

Read-outs that look alike come from different tables or passages of the source.

T1 sequence (Q8SPW2 other isoform, or with tags, fused parts or gaps limits assumed): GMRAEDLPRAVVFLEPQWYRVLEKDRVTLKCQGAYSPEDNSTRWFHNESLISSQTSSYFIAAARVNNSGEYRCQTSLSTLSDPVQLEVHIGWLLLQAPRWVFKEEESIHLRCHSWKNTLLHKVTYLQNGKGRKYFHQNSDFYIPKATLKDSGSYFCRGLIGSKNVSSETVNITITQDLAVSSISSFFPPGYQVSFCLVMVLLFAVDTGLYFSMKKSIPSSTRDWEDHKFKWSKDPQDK

B1: VHH02 VHH-Fc antibody (Fc fusion)
chain: EVQLVESGGGLVQAGGSLRLSCATSGITFSSYAMGWYRQAPGKQRELVAGINRFGLTNYADSVKGRFTISRDNAKNTVYLQMTSLKSEDTAVYYCNTGGVYSHPNYYTGIYWGQGTQVTVSSEPKSSDKTHTCPPCPAPEFEGGPSVFLFPPKPKDTLMISRTPEVTCVVVAVSHEDPEVKFNWYVDGVEVHNAKTKPREEQYNSTYRVVSVLTVLHQDWLNGKEYKCKVSNKALPAPIEKTISKAKGQPREPQVYTLPPSREEMTKNQVSLTCLVKGFYPSDIAVEWESNGQPENNYKTTPPVLDSDGSFFLYSKLTVDKSRWQQGNVFSCSVMHEALHNHYTQKSLSLSPGK
Regarding B1, the EC50 – broadly, the concentration that produces a half-maximal response – in assay [1] worked out at 0.88 nM; in assay [2] it was 1.21 nM; in [3] it was 1.18 nM; in assay [4], 1.17 nM; in [5] it was 0.3 nM; in [6] it was 4.27 nM. Besides, the EC50 in [7] worked out at 5.45 nM; in [8], 0.33 nM; in [9] it was 0.33 nM. Besides, the “Maximum mean fluorescence intensity” value in [1] amounted to 17100; in assay [2] it was 6020; in [3], 7660; in [4] it was 5210; in [5] it was 6000; in [6], 31900. Besides, the “Maximum mean fluorescence intensity” value came out at 52400 in assay [7], 6310 in assay [8] and 7300 in assay [9]. Moreover, the Kd (in general, the constant that tells how readily two partners part at equilibrium) in the assay with Human CD16a (158F)-his was 132 nM; with Human CD16a (158V)-his, 96.5 nM. Moreover, the koff (commonly the rate constant with which the complex falls apart) with Human CD16a (158F)-his turned out to be 0.027 s⁻¹; with Human CD16a (158V)-his it was 0.0179 s⁻¹. In addition, the values for the kon in the assay with Human CD16a (158F)-his and in the assay with Human CD16a (158V)-his were 205000 M⁻¹ s⁻¹ and 186000 M⁻¹ s⁻¹, respectively. In addition, in [10], the “EC50, activation activity for Jurkat cell” value (shortened to “EC50, activation activity”) came out at 0.3 nM. Besides, the Maximum fluorescence value in assay [10] was found to be 178000.

B2: VHH14 VHH-Fc antibody (Fc fusion)
chain: EVQLVESGGGLVQAGGSLRLSCAASGITFSSYAMAWYRQDPGKQRELVAAINRFGLTNYADSVKGRFTISRDNAKNTVYLEMTSLKPEDTAVYYCNTGGVYSHPNYYTGTYWGQGTQVTVSSEPKSSDKTHTCPPCPAPEFEGGPSVFLFPPKPKDTLMISRTPEVTCVVVAVSHEDPEVKFNWYVDGVEVHNAKTKPREEQYNSTYRVVSVLTVLHQDWLNGKEYKCKVSNKALPAPIEKTISKAKGQPREPQVYTLPPSREEMTKNQVSLTCLVKGFYPSDIAVEWESNGQPENNYKTTPPVLDSDGSFFLYSKLTVDKSRWQQGNVFSCSVMHEALHNHYTQKSLSLSPGK
For B2, the EC50 was determined as 0.18 nM in assay [1]; 0.91 nM in assay [2]; 1.1 nM in assay [3]; 0.23 nM in [4]; 0.27 nM in [5]; 0.93 nM in assay [6]. Also, the EC50 came to 1.44 nM in assay [7], 0.27 nM in assay [8], 0.38 nM in assay [9] and 0.17 nM in assay [11]. Moreover, the “Maximum mean fluorescence intensity” value was found to be 16400 in assay [1]; 5070 in [2]; 7900 in [3]; 5750 in [4]; 6250 in [5]; 41900 in assay [6]. Moreover, the “Maximum mean fluorescence intensity” value in assay [7] came to 61400; in assay [8], 5510; in assay [9], 8180; in assay [11], 2620. For the same molecule, the Kd came out at 25 nM with Human CD16a (158F)-his and 19.3 nM in the assay with Human CD16a (158V)-his. Further, the koff with Human CD16a (158F)-his turned out to be 0.0296 s⁻¹; with Human CD16a (158V)-his, 0.0602 s⁻¹. Further, the kon (commonly the rate constant with which the complex forms) with Human CD16a (158F)-his came out at 1.18e+06 M⁻¹ s⁻¹; with Human CD16a (158V)-his, 3.12e+06 M⁻¹ s⁻¹. For the same molecule, the “EC50, activation activity” value in [10] came out at 0.02 nM. The molecule further yielded a Maximum fluorescence value in [10] of 169000.

B3: VHH12-02 humanized VHH-Fc antibody (Fc fusion)
chain: EVQLVESGGGLVQPGGSLRLSCAASGITFSSYAMGWYRQAPGKQRELVAAINRFGLTYYVDSVKGRFTISRDNAKNSLYLQMNSLRAEDTAVYYCNTGGVYSHPDYYTGTYWGQGTMVTVSSEPKSSDKTHTCPPCPAPEEFGGPSVFLFPPKPKDTLMISRTPEVTCVVVAVSHEDPEVKFNWYVDGVEVHNAKTKPREEQYNSTYRVVSVLTVLHQDWLNGKEYKCKVSNKALPAPIEKTISKAKGQPREPQVYTLPPSREEMTKNQVSLTCLVKGFYPSDIAVEWESNGQPENNYKTTPPVLDSDGSFFLYSKLTVDKSRWQQGNVFSCSVMHEALHNHYTQKSLSLSPGK
Regarding B3, in assay [12], the EC50 was determined as 0.46 nM and the “Maximum mean fluorescence intensity” value was 7440. In assay [13], the EC50 worked out at 0.45 nM and the “Maximum mean fluorescence intensity” value is 6600. Also, in assay [14], the EC50 came out at 0.94 nM and the “Maximum mean fluorescence intensity” value amounted to 39700. Besides, the “Maximum mean fluorescence intensity” value in assay [15] was 73300. In the assay with Human CD16a (158F)-his, the Kd worked out at 75.1 nM, the koff turned out to be 0.0237 s⁻¹ and the kon amounted to 316000 M⁻¹ s⁻¹. Besides, in assay [16], it took 0.74 nM to reach a half-maximal effect (EC50) and the “Maximum mean fluorescence intensity” value stood at 16900. Besides, in [17], the “EC50, activation activity” value turned out to be 0.01 nM and the Maximum fluorescence value came out at 148000.
